Reference: the Immune Epitope Database (IEDB)
pKd: −log10 of the molar value.

Assays:
HLA-B*44:02 = assay: IEDB peptide-MHC binding, purified MHC/competitive/fluorescence; filed as Kd, often an IC50 or EC50 that approximates it; ≥ and ≤ were set here for values at or beyond the usual limits of such assays; conditions: source organism: Salmonella enterica subsp. enterica serovar Typhi
HLA-A*31:01 = assay: as above; conditions: source organism: Salmonella enterica subsp. enterica serovar Typhi
HLA-B*27:05 = assay: as above; conditions: source organism: Salmonella enterica subsp. enterica serovar Typhi
HLA-A*02:01 = assay: as above; conditions: source organism: Salmonella enterica subsp. enterica serovar Typhi
HLA-B*15:42 = assay: as above; conditions: source organism: Salmonella enterica subsp. enterica serovar Typhi
HLA-B*48:01 = assay: as above; conditions: source organism: Salmonella enterica subsp. enterica serovar Typhi
HLA-C*14:02 = assay: as above; conditions: source organism: Salmonella enterica subsp. enterica serovar Typhi
HLA-B*38:01 = assay: as above; conditions: source organism: Salmonella enterica subsp. enterica serovar Typhi
HLA-C*15:02 = assay: IEDB peptide-MHC binding, purified MHC/direct/fluorescence; filed as Kd, often an IC50 or EC50 that approximates it; ≥ and ≤ were set here for values at or beyond the usual limits of such assays; conditions: source organism: Salmonella enterica subsp. enterica serovar Typhi str. CT18

Sequence: SVIDHIHYM
- pKd (HLA-B*44:02): ≤ 4.70
- pKd (HLA-A*31:01): 6.64
- pKd (HLA-B*27:05): ≤ 4.70
- pKd (HLA-A*02:01): 8.31
- pKd (HLA-B*15:42): ≤ 5.30
- pKd (HLA-B*48:01): ≤ 4.70
- pKd (HLA-C*14:02): 7.42
- pKd (HLA-B*38:01): ≤ 4.70
- pKd (HLA-C*15:02): 7.02
